In assay [1] the target is T1, human ENTPD2 expressed on cells (human, UniProt Q9Y5L3 1-495).
T1 construct: full-length human ENTPD2 on engineered cells; also called NIH3T3 humanENTPD2; NIH/3T3-hENTPD2
T1 sequence: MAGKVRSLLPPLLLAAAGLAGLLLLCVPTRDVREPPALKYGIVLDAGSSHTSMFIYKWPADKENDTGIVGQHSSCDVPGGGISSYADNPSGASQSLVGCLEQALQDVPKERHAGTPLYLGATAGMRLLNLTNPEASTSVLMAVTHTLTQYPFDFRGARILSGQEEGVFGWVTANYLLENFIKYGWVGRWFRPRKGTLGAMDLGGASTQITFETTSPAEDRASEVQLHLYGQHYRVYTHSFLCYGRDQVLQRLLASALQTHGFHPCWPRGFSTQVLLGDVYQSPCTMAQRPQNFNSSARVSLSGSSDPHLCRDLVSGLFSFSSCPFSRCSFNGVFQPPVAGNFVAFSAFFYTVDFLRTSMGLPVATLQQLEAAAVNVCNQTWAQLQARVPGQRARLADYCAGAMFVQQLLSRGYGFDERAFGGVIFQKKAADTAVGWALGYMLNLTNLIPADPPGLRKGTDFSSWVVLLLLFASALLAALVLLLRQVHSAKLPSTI
The experiment in a line: flow cytometry, RKO cells (endogenous ENTPD2). As for the experimental part:
FACS screening: Specific binding of candidate antibodies to endogenously expressed ENTPD2 was assessed by flow cytometry. […] Geometric mean fluorescence intensity was calculated on live single cells using FlowJo software.

Assay [2] concerns the target T1, human ENTPD2 expressed on cells. As to the kind of experiment: cell-based or functional assay.
Assay [3] deals with T2, cyno ENTPD2 expressed on NIH/3T3 cells (cynomolgus macaque, UniProt Q9Y5L3 1-495 (human entry)).
T2 chain: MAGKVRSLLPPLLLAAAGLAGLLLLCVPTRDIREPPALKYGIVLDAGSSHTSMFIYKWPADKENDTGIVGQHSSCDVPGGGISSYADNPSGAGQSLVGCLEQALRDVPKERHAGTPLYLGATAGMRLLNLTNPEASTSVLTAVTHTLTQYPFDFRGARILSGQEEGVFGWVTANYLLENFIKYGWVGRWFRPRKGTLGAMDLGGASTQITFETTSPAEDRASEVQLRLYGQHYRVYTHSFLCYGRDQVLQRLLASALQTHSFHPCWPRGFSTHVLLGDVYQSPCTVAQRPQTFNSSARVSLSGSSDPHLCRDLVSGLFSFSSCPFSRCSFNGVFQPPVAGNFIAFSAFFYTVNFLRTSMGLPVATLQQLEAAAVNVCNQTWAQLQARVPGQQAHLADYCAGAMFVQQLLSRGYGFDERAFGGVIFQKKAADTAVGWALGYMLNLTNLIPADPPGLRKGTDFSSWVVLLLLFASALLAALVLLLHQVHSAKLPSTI
As to the kind of experiment: cell-based or functional assay.

The target in assay [4] is T2, cyno ENTPD2 expressed on NIH/3T3 cells. The experiment in a line: flow cytometry, NIH3T3 cyno ENTPD2 cells.
The target of assay [5] is T1, human ENTPD2 expressed on cells. The experiment in a line: flow cytometry, NIH3T3 human ENTPD2 cells.
For a further assay, the target named is T3, ENTPD8 of H520 cells (UniProt Q5MY95 1-495, limits assumed).
T3 construct: whole, on cells
T3 sequence (looked up): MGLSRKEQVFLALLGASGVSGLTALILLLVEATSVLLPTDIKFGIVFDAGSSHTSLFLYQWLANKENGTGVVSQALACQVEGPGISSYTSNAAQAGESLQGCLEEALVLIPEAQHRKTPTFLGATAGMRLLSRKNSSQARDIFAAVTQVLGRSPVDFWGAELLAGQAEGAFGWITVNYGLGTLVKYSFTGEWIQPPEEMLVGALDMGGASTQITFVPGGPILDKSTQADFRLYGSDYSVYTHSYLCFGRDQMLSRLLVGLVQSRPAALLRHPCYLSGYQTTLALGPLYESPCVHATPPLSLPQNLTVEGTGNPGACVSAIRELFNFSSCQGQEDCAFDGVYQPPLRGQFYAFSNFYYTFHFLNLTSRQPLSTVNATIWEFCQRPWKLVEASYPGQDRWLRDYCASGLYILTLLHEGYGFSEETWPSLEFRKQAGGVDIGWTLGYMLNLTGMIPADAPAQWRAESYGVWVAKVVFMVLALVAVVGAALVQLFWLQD
The experiment in a line: flow cytometry, H520 cells.

The target of the next assay is T4, ENTPD3 of H520 cells (UniProt O75355 1-529, limits assumed).
T4 construct: whole, on cells
T4 sequence (looked up): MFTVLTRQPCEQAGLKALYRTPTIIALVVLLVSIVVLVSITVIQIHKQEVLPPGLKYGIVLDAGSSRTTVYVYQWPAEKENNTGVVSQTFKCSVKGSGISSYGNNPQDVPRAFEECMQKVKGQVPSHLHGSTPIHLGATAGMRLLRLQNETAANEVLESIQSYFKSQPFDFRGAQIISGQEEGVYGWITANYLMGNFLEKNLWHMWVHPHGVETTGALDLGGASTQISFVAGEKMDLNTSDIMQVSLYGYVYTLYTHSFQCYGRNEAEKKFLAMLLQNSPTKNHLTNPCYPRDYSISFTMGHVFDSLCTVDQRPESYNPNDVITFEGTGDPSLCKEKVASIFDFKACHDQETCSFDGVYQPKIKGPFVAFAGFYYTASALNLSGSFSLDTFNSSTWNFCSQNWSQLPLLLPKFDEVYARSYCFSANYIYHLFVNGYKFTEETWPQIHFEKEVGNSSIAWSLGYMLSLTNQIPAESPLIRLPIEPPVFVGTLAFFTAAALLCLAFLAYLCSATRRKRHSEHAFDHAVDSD
The experiment in a line: flow cytometry, H520 cells.

Numbering of substitutions follows the chain as printed.

B1: ANTI-HUMAN ENTPD2 MAB8 (antibody, human IgG1, lambda, V domains shown)
VH: QVQLQQSGPGLVKPSQTLSLTCAISGDSVSSSSAAWNWIRQSPSRGLEWLGRIYYRSKWYNDYAVSVKSRITINPDTSKNQFSLQLNSVTPEDTAVYYCARGSYVTSSYEGFDYWGQGTLVTVSS
VL: SYELTQPLSVSVALGQTARITCSGDNLPEKYAYWYQQKPGQAPVLVIYDDNKRPSGIPERFSGSNSGNTATLTISRAQAGDEADYYCQSYGKWGWTWVFGGGTKLTVLG
notes: also called Anti-ENTPD2 mAb8
On to B1, for which it took 0.3 nM to reach a half-maximal effect in assay [1] (EC50). Moreover, in assay [2], the “% inhibition, Human ENTPD2 NIH/3T3 Assay” value amounted to 97%; the “% inhibition, RKO Assay” value came to 95%; the “IC50, Human ENTPD2 NIH/3T3 Assay” value worked out at 0.1 nM; the “IC50, RKO Assay” value was 0.2 nM. In assay [3], the “% inhibition, Cyno ENTPD2 NIH/3T3 Assay” value stood at 96% and the “IC50, Cyno ENTPD2 NIH/3T3 Assay” value amounted to 0.9 nM. Moreover, it took 2.1 nM to reach a half-maximal effect in assay [4] (EC50). The molecule also registered an EC50 in assay [5] of 0.6 nM. The binding result with ENTPD8 of H520 cells is given as “no binding (tested: 50 nM)”. Besides, in the assay with ENTPD3 of H520 cells, the binding result is “no binding (tested: 50 nM)”.

B2: ANTI-HUMAN ENTPD2 MAB6 (antibody, human IgG1, kappa, V domains shown)
VH: QVQLQESGPGLVKPSQTLSLTCTVSGYSITSGYYWNWIRQHPGKGLEWMGYISYDADNNYNPSLKNRITISRDTSKNQFSLKLSSVTAADTAVYYCAGGYYRYGLGSYSGSYYYVMDYWGQGTTVTVSS
VL: DTQMTQSPSSLSVSVGDRATITCKASQSVDYEGHSYMNWYQQKPGKAPKLLIYAASNLESGVPSRFSGSGSGTDFTLTISSVQPEDFATYYCQQSNEDPPTFGGGTKLEIKR
notes: humanized and optimized from mAb16; human IgG1, kappa; also called Anti-ENTPD2 mAb6
For the molecule B2, in assay [1], the EC50 stood at 0.4 nM. Moreover, in assay [2], the “% inhibition, Human ENTPD2 NIH/3T3 Assay” value was determined as 95%; the “% inhibition, RKO Assay” value came out at 90%; the “IC50, Human ENTPD2 NIH/3T3 Assay” value was determined as 0.3 nM; the “IC50, RKO Assay” value was found to be 0.2 nM. Besides, in assay [3], the “% inhibition, Cyno ENTPD2 NIH/3T3 Assay” value stood at 73% and the “IC50, Cyno ENTPD2 NIH/3T3 Assay” value turned out to be 3.3 nM. In addition, in assay [4], the EC50 came to 7 nM. In addition, a half-maximal effect in assay [5] (EC50) was put at 0.9 nM. Moreover, the binding result with ENTPD8 of H520 cells is reported as “no binding (tested: 50 nM)”. For the same molecule, in the assay with ENTPD3 of H520 cells, the binding result is “no binding (tested: 50 nM)”.

B3: ANTI-HUMAN ENTPD2 MAB9 (antibody, human IgG1, lambda, V domains shown)
VH: QVQLVQSGAEVKKPGSSVKVSCKASGGTFDSYAVSWVRQAPGQGLEWMGRIVPWLGHTQYAQKFQGRVTITADESTSTAYMELSSLRSEDTAVYYCARESPGYRYSFDVWDQGTLVTVSS
VL: SYELTQPLSVSVALGQTARITCSGDAIGEKYVYWYQQKPGQAPVLVIYDDNNRPSGIPERFSGSNSGNTATLTISRAQAGDEADYYCASYDLQQARWVFGGGTKLTVLG
notes: also called Anti-ENTPD2 mAb9
B3 displayed an EC50 in assay [1] of 0.5 nM. Also, in assay [2], the “% inhibition, Human ENTPD2 NIH/3T3 Assay” value is 92%; the “% inhibition, RKO Assay” value was 70%; the “IC50, Human ENTPD2 NIH/3T3 Assay” value was found to be 0.3 nM; the “IC50, RKO Assay” value was found to be 0.1 nM. Also, in assay [3], the “% inhibition, Cyno ENTPD2 NIH/3T3 Assay” value amounted to 71% and the “IC50, Cyno ENTPD2 NIH/3T3 Assay” value stood at 0.3 nM. The 50% effective concentration (EC50) in assay [4] is 1.3 nM. Also, in assay [5], the EC50 is 0.6 nM. For the same molecule, the binding result in the assay with ENTPD8 of H520 cells is recorded as “no binding (tested: 50 nM)”. Also, the binding result in the assay with ENTPD3 of H520 cells is “no binding (tested: 50 nM)”.

B4: ANTI-HUMAN ENTPD2 MAB10 (antibody, human IgG1, lambda, V domains shown)
VH: B3 VH with H57F, Q59R
VL: B3 VL
notes: also called Anti-ENTPD2 mAb10
With B4, the EC50 in assay [1] was found to be 0.6 nM. In assay [2], the “% inhibition, Human ENTPD2 NIH/3T3 Assay” value was 88%; the “% inhibition, RKO Assay” value is 77%; the “IC50, Human ENTPD2 NIH/3T3 Assay” value came to 0.4 nM; the “IC50, RKO Assay” value came to 0.2 nM. Further, in assay [3], the “% inhibition, Cyno ENTPD2 NIH/3T3 Assay” value came to 86% and the “IC50, Cyno ENTPD2 NIH/3T3 Assay” value was 0.5 nM. Besides, the half-maximal effective concentration (EC50) in assay [4] was 1.7 nM. In addition, the EC50 in assay [5] stood at 0.8 nM. The binding result with ENTPD8 of H520 cells is “no binding (tested: 50 nM)”. The binding result with ENTPD3 of H520 cells is recorded as “no binding (tested: 50 nM)”.

Values taken from patent US20220348651A1 (Novartis, published 2022).
